Measured values: the DeepSol protein solubility set

Test: soluble on expression in E. coli; label from the status in PepcDB or PDB records

Question: For “MSLAKALSLMLAQLNLTVGAIEDNCDKVLAAAAEADRQGADLLVCSELALTGYPPEDLLLRVDLMIRVEAALARLAAWQGACAILVGHPWRDGEALYNAASLYEQGKLVARYFKQDLPNYGVFDEKRYFTAATETCVVPFRGHQLGLLICEDLWQPGPALAAKAAGAELLLTINASPYDQEKPWIRRELMAERCDQTGLPLVYLNQVCGQDELIFDGCSKVFNSQGELTHKLAPFAEELALVRFADGQPVKEREPAAPLEPLAETYQALVLAVRDYVTKNGFHGAVLGLSGGIDSALTLAIAADAIGADKVQAVMMPFRYTAQMSVEDAKEQAERMGVEFNIISIEPMFEGFMAQLAPLFEGTARDTTEENLQARCRGVLLMALSNKRRCIVLTTGNKSEMAVGYATLYGDMAGGFDVLKDVPKTLVFKLCEYRNSVDYVIPQRVIDRPPSAELAPDQVDQDSLPPYDILDAILKRYVEEDASVADMVAEGFEEAVVRKVIRLVDLNEYKRRQAAVGPRITARNFGKDRRYPITSGFGKQNWEGHHHHHH”, which “soluble on expression in E. coli” value is on record?
Answer: soluble

Question: For “ASTLGFKARIHMSHDATDWKINKLLQNGVEVKIYDDNFSNAVAAARVSSQRDPYSYFIDDEGSKLLFAGYATAGERVKKQLSKMQIEVSKEHPLVVYLPAGVGGSPSGVAFGLKLQFADAVIPIFVEPTHMPSVLLGMASGLNHDISVYDIGIDGKTAADGLAVGRPSMIAGKYMKDKLFGIATVSDSDMFAYQGMLKKLENIEVEPSAAVGIRGLIQSKEISEIPDSATHMVWATGGSMVPKNTMHKYEDKAVRIFNTWKS”, which “soluble on expression in E. coli” value is on record?
Answer: not soluble

Question: For “MKINWTEVKEKIRPQISKPSYETWFTNTTVYLEDDILTIYCPNEFARDWLESHYKELVFNTLREMFNTTFEIQFDLCNGEPSNLKDVQKEKLSSWDEVKKALRPKIAEKTFMTWIRNTNATIKDNKVIIFCEDAFHRDLLEGEYKNIISSTVQKITDEEYQIWFEIESSATSNAQVHHVKNNQRTSGQEESKTIWNKIKDKIQLKISRPSYETWVKETTARINEDSLIIYFENEFQQEWVKKSYKDLISQIAKELTGNTYEIQFELKSNTTSNNEKSTIKDITSELGEQFKVSNNSLKYNDVDESNKRIRALEEKIMNLEKVIGTLVEKLDAVELKTQLEKLEHHHHHH”, which “soluble on expression in E. coli” value is on record?
Answer: not soluble

Question: For “MSQLVFIVFQDNDDSRYLAEAVMEDNPDAEMQHQPAMIRIQAEKRLVINRETMEEKLGRDWDVQEMLINVISIAGNVDEDDDHFILEWN”, which “soluble on expression in E. coli” value is on record?
Answer: soluble

Question: Which “soluble on expression in E. coli” value does the source give for “MNIEIKDTLISEEQLQEKVKELALQIERDFEGEEIVVIAVLKGSFVFAADLIRHIKNDVTIDFISASSYGNQTETTGKVKLLKDIDVNITGKNVIVVEDIIDSGLTLHFLKDHFFMHKPKALKFCTLLDKPERRKVDLTAEYVGFQIPDEFIVGYGIDCAEKYRNLPFIASVVTEESYNLKSR” here?
Answer: soluble

Question: With “PTAGADTIEYCVTHSESKALIGGKLDDPAATQQVIDAMPELISIALPYDSAPQCQYQFNALIADAVPSEERPQHYDDKLMSLVYTSGTSGLPKGAMLTYGAFSWSVQQLINHIGIQANDRLFSYLPLAHITER” as the sequence, how does the “soluble on expression in E. coli” value read?
Answer: not soluble

Question: Which “soluble on expression in E. coli” value does the source give for “PSTVSHFMAFNPKNDVLNQRTIREAISKSIDAKDIAGKSVNGLFQKNVQFVTKNNQQPHDYDMKAAERLLKSEGYHKNDDGIFEKNGKPLSFNLVIQTAEFPNWKDKAEKVQRQLKQAGIKLNVKTLDSQSYYDTLWTKKDYDLIFYRTYSDALMPYNFISSVFKNNDGQPGVLADDETLTKQLDDFPSTVSKEDQQCSFDDIFKHFNQQYYGVPIAYPNETFVVSDKV” here?
Answer: soluble

Question: Which “soluble on expression in E. coli” value does the source give for “MGSDKIHHHHHHMKDLLTRRFVLNSKEVREGDVFVAVKGKRFDGHDFIDEALRNGAYAIIAERKTVNSDRIFLVESSVDTLAKLAREKLGNFSGTVVGVTGSSGKTTTKEILYNLLKNKRSVFKTPGNMNTEYGLPLSILNDYKGEEILVLEMAASRPGDIAHLCKIAPPDVAVLLNVGSAHLEFFGTRERIMETKMEIIKHSKENAIAVTLFDDPDLRKEVPRYRNTLFFGKEGGDSVLKDWWYYEGSTIAEFEAFDSLFTVKLSGYWNGGQLLNIAASLCVMRTLGETVDIFDLASLKTVPGRFNVREKKGVLIVDDTYNASPEAFQTSIEALLRFPGKKFAVVGAMKELGERSKEFHEELGERLNVLDGVYVFLSEPEAEWIKSKKIILKSDDPEKIAKDLATRVKKGDVVLFKASRAVRIERVLEM” here?
Answer: not soluble

Question: With “MRKEVEQLALMGAMPDETDEPTDVLIDKYADLLGKITKPITLDEAHILIKLFPPTALYGIEWTLLHLIESVYPETEFIKYKELINECNSVEFREMLVQRLNNSQQNKVTNK” as the sequence, how does the “soluble on expression in E. coli” value read?
Answer: not soluble

Question: Which “soluble on expression in E. coli” value does the source give for “MGSDKIHHHHHHYLNTLQRELENAGIESRLVRRFGYTQEAVDWADAVFSAGGDGTFLMASSRVRTKHKPVIGINTDPQGSEGYMCLMRKLPEENLAGALKKLFSGNFEWLNRQRIRITVTGDDGISDAIELHDQQLNRDPATTRWTDNPRSPAREIEECMSLSPPVKKRMISEAVEIPEVEKETVELPVLALNEVFIGESLSSRVSYYEIGINDAQMLKQKSSGITICTGTGSTSWNFNINKLTEQCVQDLMKIVAEHCNLPQIPHGDKNAVSEICTKFNQQLIFDPDRKQLAFSVRDPIFNATFPPTDPRGFADKICIKSRGYDAHLVIDGGISYRFNDGSEAVMEVRDEDTLRTVVFR” here?
Answer: not soluble

Question: For “GAMGSWNPKYDTRTLWTTPDTSPNCTIAQDKDSKLTLVLTKCGSQILANVSLIVVAGKYHIINNKTNPKIKSFTIKLLFNKNGVLLDNSNLGKAYWNFRSGNSNVSTAYEKAIGFMPNLVAYPKPSNSKKYARDIVYGTIYLGGKPDQPAVIKTTFNQETGCEYSITFNFSWSKTYENVEFETTSFTFSYIAQE”, which “soluble on expression in E. coli” value is on record?
Answer: soluble

Question: For “MGSDKIHHHHHHMTYTSLQSPADKDYLYDIRVAHLYGNLLNTYGDNGNVLMLKYVGEKLGIRMTFDIVSIGDDFDANKYDMVFFGGGQDYEQSIVAKDLPNKRSAIASFIQNNKVVLAICGGFQLLGQYYVQANGVRIDGIGVMGHYTLNQKDNRYIGDIKIHNDEFNETYYGFENHQGRTFLSDDEKPLGRVIYGNGNNKEDGSEGVHYKNVFGSYFHGPILSRNANLAYRLVTTALHNKYGIDIQLPRYEDILSLEVAEEYGDVKSKAEFEK”, which “soluble on expression in E. coli” value is on record?
Answer: not soluble

Question: With “MAHHHHHHMVQVVHRHGERSALINDNKTEICGTLYPCGELTGERVKMVRAIGEFARSRYNDLSLVESPLCPSTQYNSSLVYTRPTHTQRTIQSATAFLHSLFQDDYFYPVAYSVNRTTDMLLSTDAVPSVVGRSWLDNQAVYPGLMEVNAAWFKYVFSWNHTSKLDLTQGSASQNLEQAMLANINAPPRLSPSYNMFHYSAHDTTVTPFAATFGDQGNTTMHPPFAVTSFVALLQDTADASGWYVRLIRSNPVKVASGTYVFRQTGIAVHCFDATGNRYRVSTGICPLDDFRRMVDHSRPAVADGHSAMTHAQYSNMGSPRTIADNKLVPLRCWIYRYACPSKSCPGSYILSAVDHQCYPQTDIPNSSSSEGTSSSDVSSFKKPANWMPRVSSPEKSRHIAADILRGVTNGVTVGAAVRKHDEYRRHC” as the sequence, how does the “soluble on expression in E. coli” value read?
Answer: not soluble

Question: With “SMAGCVVIVGSGVIGRSWAMLFASGGFQVKLYDIEQQQIRNALENIRKEMKLLEQAGSLKGSLSVEEQLSLISGCPNIQEAVEGAMHIQECVPEDLELKKKIFAQLDSIIDDRVILSSSTSCLMPSKLFAGLVHVKQCIVAHPVNPPYYIPLVELVPHPETAPTTVDRTHALMKKIGQCPMRVQKEVAGFVLNRLQYAIISEAWRLVEEGIVSPSDLDLVMSEGLGMRYAFIGPLETMHLNAEGMLSYCDRYSEGIKHVLQTFGPIPEFSRATAEKVNQDMCMKVPDDPEHLAARRQWRDECLMRLAKLKSQV” as the sequence, how does the “soluble on expression in E. coli” value read?
Answer: soluble

Question: Which “soluble on expression in E. coli” value does the source give for “MGSGESTTRRVSFGLDEDDRVRILRGVKLSEDVLQRMRNTNADPRPPANNKENQGHQTRTPSTSDAQAPKTQAKTTFPDSKEELKKRYEQQQAIIQEELARIARKEREAARQDISRAVQRERAQTRQESERAKQLGKQLDKKEAELKALEAFYQEQITQLEKKNEERFRMSAEQFHAAATRSEANIKARNVEPVCLNLQAQILNCYRENREQTLQCSDLAKEYMQCINAAKKNLLVNHG” here?
Answer: not soluble

Question: With “MAHHHHHHMSMNNPAPSPQAPMAAPLDASATVHPRENLAVSAPPGATGAGHNKRLPEELAEFLHTQPPRMETINERKQLFCTRLYMTPPRVLATEGAERRGETLGASLTATGTTSNDSVVGAPLLRSPPPAVLPAAGAPASLKIAKTVPFSEEEHLAWLCAPASPTESRTSAAVPPEAAASSRGLARTERISHAQSEGVRRHEPDRRAVGATATQQPHLSHGASDAHGNDAPARLQGLVAASMATAPNPATPLALQHGEISYKSSFSVLTSWDALMVAPPLLRTTPRMPSLLTQDVENIGTAAMHLNRSTTVTHACASDDVARIPSTGSRAELLIGTSPATEKGEARQEEARADAVLQQPVFPSSCCTRSPTTVPSRLKYDGHGLSPEDSLHQVEEDSARTFVKHFTNGLVFVDPPWFICPVLLDNCEHPYYMTWLDELEVGSVEEAVAETKAKLLTDA” as the sequence, how does the “soluble on expression in E. coli” value read?
Answer: not soluble

Question: With “MGSDKIHHHHHHMVNSLTTPEPQTLKPGVKAPVQETLLTPRFYTTDFDAVANLDISANEAEIRAVVEELRADYNRHHFVRDEEFKQSWDHITGEKRRAFIDFLERSCTSEFSGFLLFKELSRRIKSRNPLLAEAFEFMARDEARHAGFLNKSMSDLNLSLDLNYLTKNRTYTFFPPEWVIYTVYLSEKIGYWRYILVHQHMQEHPEYQFYPLFRKFESWCQDENRHGDFFKALLRSQPQLWKNWKARLWVRFFLLTVFVTHTMTVFERASFYESIGIHPRKYNNRVIQETNNTSARAFPLILNTNHPLFFWRLEQCWENNMKLAAIKNNKLPNFVKFFQRIPPATAIFWNMLRLFLIKPIDTEATRGTVL” as the sequence, how does the “soluble on expression in E. coli” value read?
Answer: not soluble

Question: Which “soluble on expression in E. coli” value does the source give for “MHLHFTPRQIVEKLDQYIIGQKDAKKAVAVALRNRYRRSKLAENLRDEIAPKNILMIGPTGVGKTEVARRMAKLVGAPFIKVEATKFTEVGYVGRDVESMVRDLVETSVRIVKEEMVVKVQDKAEEQANQRLVEILVPSPEKQSGFKNPLEMLFGGTQNSNQTTDSQEDVEIEKKRQDVERKLAAGLLEDEIVSIEVTEQQSSMFDMLQGTGMEQMGMNFQDALGSFMPKKTKKRKLSVKEARKVLTNEEAQRLIDMDEVTQEAVYRAEQLGIIFIDEIDKIAGKQSNSVDVSREGVQRDILPIVEGSNVATKYGSVKTDYILFVAAGAFHMSKPSDLIPELQGRFPIRVELTKLSTDDFVKILIEPDNALIKQYMALLATEGIEIEFSDEAIRKIAEIAYQVNQDTDNIGARRLHTIMEKLLEDLSFEASEITLEKITITPQYVEEKLATIAKNKDVSQFIL” here?
Answer: not soluble

Question: Which “soluble on expression in E. coli” value does the source give for “MAGRKKTTACKLFVLDTNVLLHDPTCLYRFEEHDVFIPIITLEELDTHKKGMSEVARNARQASRFLDDIISGNELNISEGIPLKHASRDAASGKLILQTQAINGTLPSSLPMGKADNQILGIVMALKSHYQGRAVILVSKDINMRIKARALGLEAEDYFNDKVLEDTDVL” here?
Answer: not soluble

Question: For “MKSAYIFFNPKSGKDEQALAKEVKSYLIEHDFQDDYVRIITPSSVEEAVALAKKASEDHIDLVIPLGGDGTINKICGGVYAGGAYPTIGLVPAGTVNNFSKALNIPQERNLALENLLNGHVKSVDICKVNDDY”, which “soluble on expression in E. coli” value is on record?
Answer: not soluble

Question: With “MPNASQVYRSTRSSSPKTISFEEAIIQGLATDGGLFIPPTIPQVDQATLFNDWSKLSFQDLAFAIMRLYIAQEEIPDADLKDLIKRSYSTFRSDEVTPLVQNVTGDKENLHILELFHGPTYAFKDVALQFVGNLFEYFLQRTNANLPEGEKKQITVVGATSGDTGSAAIYGLRGKKDVSVFILYPTGRISPIQEEQMTTVPDENVQTLSVTGTFDNCQDIVKAIFGDKEFNSKHNVGAVNSINWARILAQMTYYFYSFFQATNGKDSKKVKFVVPSGNFGDILAGYFAKKMGLPIEKLAIATNENDILDRFLKSGLYERSDKVAATLSPAMDILISSNFERLLWYLAREYLANGDDLKAGEIVNNWFQELKTNGKFQVDKSIIEGASKDFTSERVSNEETSETIKKIYESSVNPKHYILDPHTAVGVCATERLIAKDNDKSIQYISLSTAHPAKFADAVNNALSGFSNYSFEKDVLPEELKKLSTLKKKLKFIERADVELVKNAIEEELAKMKL” as the sequence, how does the “soluble on expression in E. coli” value read?
Answer: soluble
